The record followed here is doi:10.1101/2022.05.16.492129, “Cachd1 is a novel Frizzled- and LRP6-interacting protein required for neurons to acquire left-right asymmetric character” (bioRxiv, 2022).

First the molecules themselves.
B3: mouse Cachd1 extracellular domain (CACHD1ECD) (domain or fragment)
chain: DADFSILDEAQVLASQMRRLAAEELGVVTMQRIFNSLVYTEKISNGESEVQQLAKKIREKFNRYLDVVNRNKQVVEASYTAHLTSPLTAIQDCCTIPPSMMEFDGNFNTNVSRTVSCDRLSTTVNSRAFNPGRDLNSVLADNLKSNPGIKWQYFSSEEGIFTVFPAHKFRCKGSYEHRSRPIYVSTVRPQSKHIVVILDHGASVTDTQLQIAKDAAQVILSAIDEHDKISVLTVADAVRTCSLDQCYKTYLSPATSETKRKMSTFVSSVKPSDSPTQHAVGFHRAFQLIRSTSNSTRFQANTDMVIIYLSAGITSKDSSEEDKKATLRVINEENGFLNNSVMILTYALMNDGVTGLKELAFLRDLAEQNSGKYGIPDRTALPVIKGSMMVLNQLSNLETTVGRFYTNLPNRMIDEAVFSLPFSDEMGDGLIMTVSKPCYFGNLLLGIVGVDVNLAYILEDVTYYQDSLASYTFLIDDKGYTLMHPSLTRPYLLSEPPLHTDIIHYENIPKFELVRQNILSLPLGSQIITVPVNSSLSWHINKLRETGKEAYNVSYAWKMVQDTSFILCIVVIQPEIPVKQLKNLNTVPSSKLLYHRLDLLGQPSACLHFKQLATLESPTVMLSAGSFSSPYEHLSQPETKRMVEHYTAYLSDNTRLIANPGLKFSVRNEVMATSHVTDEWMTQMEMSSLNTYIVRRYIATPNGVLRIYPGSLMDKAFDPTRRQWYLHAVANPGLISLTGPYLDVGGAGYVVTISHTIHSSSTQLSSGHTVAVMGIDFTLRYFYKVLMDLLPVCNQDGGNKIRCFIMEDRGYLVAHPTLVDPKGHAPLEQQHITHKEPLVANDILNHPNFVKKNLCNSFSDRTVQRSYKFNTSLVGDLTNLVHGSHCSKYRLTRIPGTNAFVGIVNETCDSLAFCACSMVDRLCLNCHRMEQNECECPCECPLEVNECTGNLTNAENRNPSCEVHQEPVTYTAIDPGLQDALQQCVNSRCNQRMESGDCFGVLDCEWCVVDSDGKTHLDKSYCAPQKECFGGIVGAKSPYVDDMGAIGDEVITLNMIKS
notes: mouse Cachd1 extracellular domain, residues D50-S1107, in pNeoSec; also called mouse CACHD1ECD; source: deglycosylated with EndoF1 before crystallisation

Settings in all cases: both partners purified
Assay [1] has as its target B3. Description: SPR; biotinylated FZD CRDs or LRP6 fragments immobilised (about 500-1,000 RU) on an SA sensor chip, CACHD1ECD as analyte at 100 μL/min; Biacore S200, 25 °C, 10 mM HEPES pH 7.5, 150 mM NaCl, 0.005% Tween 20; equilibrium response fitted to a one-site saturation binding model.
The target in assay [2] is human FZD7 cysteine rich domain (FZD7CRD), biotinylated, for SPR (human, UniProt O75084 33-170, biotin). The assay is described as above.
Assay [3] has as its target B3. Description: crystal structure; ternary complex: Cachd1ECD mixed with equal molar FZD5CRD and LRP6 P3E3P4E4; 0.1 M calcium acetate, 0.1 M sodium acetate pH 4.5, 10% (w/v) PEG 4000; 4.7 Å.

B1: human LRP6 P1E1P2E2 (membrane distal fragment), biotinylated, for SPR (domain or fragment, UniProt O75581 20-630, looked up)
chain: APLLLYANRRDLRLVDATNGKENATIVVGGLEDAAAVDFVFSHGLIYWSDVSEEAIKRTEFNKTESVQNVVVSGLLSPDGLACDWLGEKLYWTDSETNRIEVSNLDGSLRKVLFWQELDQPRAIALDPSSGFMYWTDWGEVPKIERAGMDGSSRFIIINSEIYWPNGLTLDYEEQKLYWADAKLNFIHKSNLDGTNRQAVVKGSLPHPFALTLFEDILYWTDWSTHSILACNKYTGEGLREIHSDIFSPMDIHAFSQQRQPNATNPCGIDNGGCSHLCLMSPVKPFYQCACPTGVKLLENGKTCKDGATELLLLARRTDLRRISLDTPDFTDIVLQLEDIRHAIAIDYDPVEGYIYWTDDEVRAIRRSFIDGSGSQFVVTAQIAHPDGIAVDWVARNLYWTDTGTDRIEVTRLNGTMRKILISEDLEEPRAIVLDPMVGYMYWTDWGEIPKIERAALDGSDRVVLVNTSLGWPNGLALDYDEGKIYWGDAKTDKIEVMNTDGTGRRVLVEDKIPHIFGFTLLGDYVYWTDWQRRSIERVHKRSAEREVIIDQLPDLMGLKATNVHRVIGSNPCAEENGGCSHLCLYRPQGLRCACPIGFELISDMKTCIVP
modifications: biotin
notes: human LRP6 P1E1P2E2 domains, residues A20-P630; source: HEK293T, co-transfected with a BirA-ER plasmid
Molecule B1 yielded a Kd in assay [1] of 5860 nM.

B2: mouse FZD5 cysteine rich domain (FZD5CRD), biotinylated, for SPR (domain or fragment, UniProt Q9EQD0 27-157, looked up)
chain: ASKAPVCQEITVPMCRGIGYNLTHMPNQFNHDTQDEAGLEVHQFWPLVEIHCSPDLRFFLCSMYTPICLPDYHKPLPPCRSVCERAKAGCSPLMRQYGFAWPERMSCDRLPVLGGDAEVLCMDYNRSEATT
modifications: biotin
notes: mouse Fzd5 cysteine rich domain, residues A27-T157, synthesised (Genscript); also called mouse FZD5CRD; source: HEK293T, co-transfected with a BirA-ER plasmid
Molecule B2 showed a dissociation constant Kd in assay [1] of 480 nM.

For B3, the dissociation constant (Kd) in assay [2] stood at 14200 nM.

B4: human FZD8 cysteine rich domain (FZD8CRD), biotinylated, for SPR (domain or fragment, UniProt Q9H461 28-158, looked up)
chain: ASAKELACQEITVPLCKGIGYNYTYMPNQFNHDTQDEAGLEVHQFWPLVEIQCSPDLKFFLCSMYTPICLEDYKKPLPPCRSVCERAKAGCAPLMRQYGFAWPDRMRCDRLPEQGNPDTLCMDYNRTDLTT
modifications: biotin
notes: human FZD8 CRD, residues A28-T158, synthesised (Genscript); also called human FZD8CRD; source: HEK293T, co-transfected with a BirA-ER plasmid
Take B4: binding in assay [1] was put at a Kd of 950 nM.

B5: human LRP6 P3E3P4E4 (membrane proximal fragment), biotinylated, for SPR (domain or fragment, UniProt O75581 629-1244, looked up)
chain: VPEAFLLFSRRADIRRISLETNNNNVAIPLTGVKEASALDFDVTDNRIYWTDISLKTISRAFMNGSALEHVVEFGLDYPEGMAVDWLGKNLYWADTGTNRIEVSKLDGQHRQVLVWKDLDSPRALALDPAEGFMYWTEWGGKPKIDRAAMDGSERTTLVPNVGRANGLTIDYAKRRLYWTDLDTNLIESSNMLGLNREVIADDLPHPFGLTQYQDYIYWTDWSRRSIERANKTSGQNRTIIQGHLDYVMDILVFHSSRQSGWNECASSNGHCSHLCLAVPVGGFVCGCPAHYSLNADNRTCSAPTTFLLFSQKSAINRMVIDEQQSPDIILPIHSLRNVRAIDYDPLDKQLYWIDSRQNMIRKAQEDGSQGFTVVVSSVPSQNLEIQPYDLSIDIYSRYIYWTCEATNVINVTRLDGRSVGVVLKGEQDRPRAVVVNPEKGYMYFTNLQERSPKIERAALDGTEREVLFFSGLSKPIALALDSRLGKLFWADSDLRRIESSDLSGANRIVLEDSNILQPVGLTVFENWLYWIDKQQQMIEKIDMTGREGRTKVQARIAQLSDIHAVKELNLQEYRQHPCAQDNGGCSHICLVKGDGTTRCSCPMHLVLLQDELSCG
modifications: biotin
notes: human LRP6 P3E3P4E4 domains, residues V629-G1244; also called 3-4; source: HEK293T, co-transfected with a BirA-ER plasmid
With B5, the Kd in assay [1] turned out to be 170 nM.

B6: human LRP6 P3E3P4E4, for crystallography (domain or fragment, UniProt O75581 629-1244, looked up)
chain: VPEAFLLFSRRADIRRISLETNNNNVAIPLTGVKEASALDFDVTDNRIYWTDISLKTISRAFMNGSALEHVVEFGLDYPEGMAVDWLGKNLYWADTGTNRIEVSKLDGQHRQVLVWKDLDSPRALALDPAEGFMYWTEWGGKPKIDRAAMDGSERTTLVPNVGRANGLTIDYAKRRLYWTDLDTNLIESSNMLGLNREVIADDLPHPFGLTQYQDYIYWTDWSRRSIERANKTSGQNRTIIQGHLDYVMDILVFHSSRQSGWNECASSNGHCSHLCLAVPVGGFVCGCPAHYSLNADNRTCSAPTTFLLFSQKSAINRMVIDEQQSPDIILPIHSLRNVRAIDYDPLDKQLYWIDSRQNMIRKAQEDGSQGFTVVVSSVPSQNLEIQPYDLSIDIYSRYIYWTCEATNVINVTRLDGRSVGVVLKGEQDRPRAVVVNPEKGYMYFTNLQERSPKIERAALDGTEREVLFFSGLSKPIALALDSRLGKLFWADSDLRRIESSDLSGANRIVLEDSNILQPVGLTVFENWLYWIDKQQQMIEKIDMTGREGRTKVQARIAQLSDIHAVKELNLQEYRQHPCAQDNGGCSHICLVKGDGTTRCSCPMHLVLLQDELSCG
notes: human LRP6 P3E3P4E4 domains, residues V629-G1244
In the case of B6, the binding result in assay [3] was “binds”.
